Data taken from US20230167164A1 (IMMUNOWAKE, published 2023).

How the values were obtained:
[1] = biological target: T1, human PD-1 (human, UniProt Q15116 25-167, limits assumed); assay: Biacore and cell-based assays, calibrated by wildtype nivolumab binding affinity
T1 construct: nivolumab is called an anti-human PD-1 antibody; also called hPD-1

[2] = biological target: T2, CD8 on CD8+ T cells (human, UniProt P01732 22-235); assay: FACS on CD8+ T cells
T2 construct: whole, on cells

[3] = biological target: IL-23 receptor complex (UniProt P42701 24-662; Q5VWK5 24-629, limits assumed); assay: cell-based or functional assay
[4] = biological target: T1, human PD-1; assay: PD-L2-Fc format, calibrated on PD-L2(wt)-Fc binding affinity
[5] = biological target: T3, mouse PD-1 (mouse, UniProt Q02242 25-167, limits assumed); assay: as above
T3 construct: also called mPD-1
T3 sequence (looked up): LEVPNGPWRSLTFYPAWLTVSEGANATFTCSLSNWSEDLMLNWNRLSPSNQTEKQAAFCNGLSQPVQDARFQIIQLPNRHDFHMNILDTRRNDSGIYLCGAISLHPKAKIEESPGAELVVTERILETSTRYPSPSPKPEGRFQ

T1 sequence (Q15116 25-167 limits assumed): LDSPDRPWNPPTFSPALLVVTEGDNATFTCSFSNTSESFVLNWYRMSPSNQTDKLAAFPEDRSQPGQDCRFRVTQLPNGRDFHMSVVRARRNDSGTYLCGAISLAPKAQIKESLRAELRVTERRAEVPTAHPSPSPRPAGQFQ
T2 sequence (P01732 22-235): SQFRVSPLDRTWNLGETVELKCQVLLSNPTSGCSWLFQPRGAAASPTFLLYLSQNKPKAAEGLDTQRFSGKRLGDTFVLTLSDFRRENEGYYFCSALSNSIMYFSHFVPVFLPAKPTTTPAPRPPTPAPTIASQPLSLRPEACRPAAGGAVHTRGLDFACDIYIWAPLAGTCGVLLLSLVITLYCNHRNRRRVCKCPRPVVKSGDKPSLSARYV
Chain of IL-23 receptor complex (Q5VWK5 24-629 limits assumed, chain 2 of 2, other chains not shown): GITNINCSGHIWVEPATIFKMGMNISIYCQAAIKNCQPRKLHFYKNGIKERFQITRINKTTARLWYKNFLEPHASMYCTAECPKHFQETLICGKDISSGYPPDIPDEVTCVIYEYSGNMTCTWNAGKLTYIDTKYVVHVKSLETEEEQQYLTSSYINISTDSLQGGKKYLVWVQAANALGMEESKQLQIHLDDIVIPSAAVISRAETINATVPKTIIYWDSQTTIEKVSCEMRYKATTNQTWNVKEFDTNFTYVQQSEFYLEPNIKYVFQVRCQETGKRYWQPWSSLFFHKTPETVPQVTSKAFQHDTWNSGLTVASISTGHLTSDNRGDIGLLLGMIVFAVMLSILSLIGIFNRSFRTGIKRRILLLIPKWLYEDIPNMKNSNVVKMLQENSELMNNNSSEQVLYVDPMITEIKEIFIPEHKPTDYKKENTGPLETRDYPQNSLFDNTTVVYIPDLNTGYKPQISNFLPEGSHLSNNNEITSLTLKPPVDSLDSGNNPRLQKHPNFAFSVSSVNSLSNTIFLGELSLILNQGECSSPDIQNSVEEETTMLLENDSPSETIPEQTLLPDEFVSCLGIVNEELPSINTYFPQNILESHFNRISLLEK

B1: anti-PD-1 antibody HC-CDR3(D100G) (antibody, IgG1, V domains shown)
VH: QVQLVESGGGVVQPGRSLRLDCKASGITFSNSGMHWVRQAPGKGLEWVAVIWYDGSKRYYADSVKGRFTISRDNSKNTLFLQMNSLRAEDTAVYYCATNGDYWGQGTLVTVSS
VL: EIVLTQSPATLSLSPGERATLSCRASQSVSSYLAWYQQKPGQAPRLLIYDASNRATGIPARFSGSGSGTDFTLTISSLEPEDFAVYYCQQSSNWPRTFGQGTKVEIKR
notes: heterodimeric IgG1 as the WT antibody
Kd [1]: 0.13 µM

B2: anti-PD-1 antibody HC-CDR3(N99G) (antibody, IgG1, V domains shown)
VH: QVQLVESGGGVVQPGRSLRLDCKASGITFSNSGMHWVRQAPGKGLEWVAVIWYDGSKRYYADSVKGRFTISRDNSKNTLFLQMNSLRAEDTAVYYCATGDDYWGQGTLVTVSS
VL: EIVLTQSPATLSLSPGERATLSCRASQSVSSYLAWYQQKPGQAPRLLIYDASNRATGIPARFSGSGSGTDFTLTISSLEPEDFAVYYCQQSSNWPRTFGQGTKVEIKR
notes: as for B1
Kd [1]: 2.3 µM

B3: anti-PD-1 antibody HC-CDR3(D100N) (antibody, IgG1, V domains shown)
VH: QVQLVESGGGVVQPGRSLRLDCKASGITFSNSGMHWVRQAPGKGLEWVAVIWYDGSKRYYADSVKGRFTISRDNSKNTLFLQMNSLRAEDTAVYYCATNNDYWGQGTLVTVSS
VL: EIVLTQSPATLSLSPGERATLSCRASQSVSSYLAWYQQKPGQAPRLLIYDASNRATGIPARFSGSGSGTDFTLTISSLEPEDFAVYYCQQSSNWPRTFGQGTKVEIKR
notes: as for B1
Kd [1]: 0.025 µM

B4: anti-PD-1 antibody HC-CDR3(D100R) (antibody, IgG1, V domains shown)
VH: QVQLVESGGGVVQPGRSLRLDCKASGITFSNSGMHWVRQAPGKGLEWVAVIWYDGSKRYYADSVKGRFTISRDNSKNTLFLQMNSLRAEDTAVYYCATNRDYWGQGTLVTVSS
VL: EIVLTQSPATLSLSPGERATLSCRASQSVSSYLAWYQQKPGQAPRLLIYDASNRATGIPARFSGSGSGTDFTLTISSLEPEDFAVYYCQQSSNWPRTFGQGTKVEIKR
notes: as for B1
Kd [1]: 0.91 µM

B5: Fab-IL-23(WT)-Fc-CD4 Ab (other)
heavy 1: QVQLQQSGPEVVKPGASVKMSCKASGYTFTSYVIHWVRQKPGQGLDWIGYINPYNDGTDYDEKFKGKATLTSDTSTSTAYMELSSLRSEDTAVYYCAREKDNYATGAWFAYWGQGTLVTVSSASTKGPSVFPLAPSSKSTSGGTAALGCLVKDYFPEPVTVSWNSGALTSGVHTFPAVLQSSGLYSLSSVVTVPSSSLGTQTYICNVNHKPSNTKVDKKVEPKSCDKPGSGIWELKKDVYVVELDWYPDAPGEMVVLTCDTPEEDGITWTLDQSSEVLGSGKTLTIQVKEFGDAGQYTCHKGGEVLSHSLLLLHKKEDGIWSTDILKDQKEPKNKTFLRCEAKNYSGRFTCWWLTTISTDLTFSVKSSRGSSDPQGVTCGAATLSAERVRGDNKEYEYSVECQEDSACPAAEESLPIEVMVDAVHKLKYENYTSSFFIRDIIKPDPPKNLQLKPLKNSRQVEVSWEYPDTWSTPHSYFSLTFCVQVQGKSKREKKDRVFTDKTSATVICRKNASISVRAQDRYYSSSWSEWASVPCSGGGGSGGGGSGGGGSGGGGSGRAVPGGSSPAWTQCQQLSQKLCTLAWSAHPLVGHMDLREEGDEETTNDVPHIQCGDGCDPQGLRDNSQFCLQRIHQGLIFYEKLLGSDIFTGEPSLLPDSPVGQLHASLLGLSQLLQPEGHHWETQQIPSLSPSQPWQRLLLRFKILRSLQAFVAVAARVFAHGAATLSPDKTHTCPPCPAPEDEGGPSVFLFPPKPKDTLMISRTPEVTCVVVDVSHEDPEVKFNWYVDGVEVHNAKTKPREEQYNSTYRVVSVLTVLHQDWLNGKEYKCKVSNKALPAPIEKTISKAKGQPREPQVYVYPPSREEMTKNQVSLTCLVKGFYPSDIAVEWESNGQPENNYKTTPPVLDEDGSFALVSKLTVDKSRWQQGNVFSCSVMHEALHNHYTQKSLSLSPGK
heavy 2: QVQLQQSGPEVVKPGASVKMSCKASGYTFTSYVIHWVRQKPGQGLDWIGYINPYNDGTDYDEKFKGKATLTSDTSTSTAYMELSSLRSEDTAVYYCAREKDNYATGAWFAYWGQGTLVTVSSASTKGPSVFPLAPSSKSTSGGTAALGCLVKDYFPEPVTVSWNSGALTSGVHTFPAVLQSSGLYSLSSVVTVPSSSLGTQTYICNVNHKPSNTKVDKKVEPKSCDKTHTCPPCPAPEKKGGPSVFLFPPKPKDTLMISRTPEVTCVVVDVSHEDPEVKFNWYVDGVEVHNAKTKPREEQYNSTYRVVSVLTVLHQDWLNGKEYKCKVSNKALPAPIEKTISKAKGQPREPQVYVLPPSREEMTKNQVSLLCLVKGFYPSDIAVEWESNGQPENRYMTWPPVLDSDGSFFLYSKLTVDKSRWQQGNVFSCSVMHEALHNHYTQKSLSLSPGK
light: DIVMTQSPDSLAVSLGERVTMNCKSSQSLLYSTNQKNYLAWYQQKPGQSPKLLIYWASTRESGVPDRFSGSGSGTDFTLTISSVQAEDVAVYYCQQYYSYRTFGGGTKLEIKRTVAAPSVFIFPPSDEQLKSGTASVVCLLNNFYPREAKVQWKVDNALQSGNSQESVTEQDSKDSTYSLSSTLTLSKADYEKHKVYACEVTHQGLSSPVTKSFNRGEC
binding result [2]: no binding
IFN-γ release, % of rIL-23, activated CD8+ T cells [3]: 21%

B6: Fab-IL-23(E59A/F60A)-Fc-CD4 Ab (other)
heavy 1: QVQLQQSGPEVVKPGASVKMSCKASGYTFTSYVIHWVRQKPGQGLDWIGYINPYNDGTDYDEKFKGKATLTSDTSTSTAYMELSSLRSEDTAVYYCAREKDNYATGAWFAYWGQGTLVTVSSASTKGPSVFPLAPSSKSTSGGTAALGCLVKDYFPEPVTVSWNSGALTSGVHTFPAVLQSSGLYSLSSVVTVPSSSLGTQTYICNVNHKPSNTKVDKKVEPKSCDKPGSGIWELKKDVYVVELDWYPDAPGEMVVLTCDTPEEDGITWTLDQSSEVLGSGKTLTIQVKAAGDAGQYTCHKGGEVLSHSLLLLHKKEDGIWSTDILKDQKEPKNKTFLRCEAKNYSGRFTCWWLTTISTDLTFSVKSSRGSSDPQGVTCGAATLSAERVRGDNKEYEYSVECQEDSACPAAEESLPIEVMVDAVHKLKYENYTSSFFIRDIIKPDPPKNLQLKPLKNSRQVEVSWEYPDTWSTPHSYFSLTFCVQVQGKSKREKKDRVFTDKTSATVICRKNASISVRAQDRYYSSSWSEWASVPCSGGGGSGGGGSGGGGSGGGGSGRAVPGGSSPAWTQCQQLSQKLCTLAWSAHPLVGHMDLREEGDEETTNDVPHIQCGDGCDPQGLRDNSQFCLQRIHQGLIFYEKLLGSDIFTGEPSLLPDSPVGQLHASLLGLSQLLQPEGHHWETQQIPSLSPSQPWQRLLLRFKILRSLQAFVAVAARVFAHGAATLSPDKTHTCPPCPAPEDEGGPSVFLFPPKPKDTLMISRTPEVTCVVVDVSHEDPEVKFNWYVDGVEVHNAKTKPREEQYNSTYRVVSVLTVLHQDWLNGKEYKCKVSNKALPAPIEKTISKAKGQPREPQVYVYPPSREEMTKNQVSLTCLVKGFYPSDIAVEWESNGQPENNYKTTPPVLDEDGSFALVSKLTVDKSRWQQGNVFSCSVMHEALHNHYTQKSLSLSPGK
heavy 2: QVQLQQSGPEVVKPGASVKMSCKASGYTFTSYVIHWVRQKPGQGLDWIGYINPYNDGTDYDEKFKGKATLTSDTSTSTAYMELSSLRSEDTAVYYCAREKDNYATGAWFAYWGQGTLVTVSSASTKGPSVFPLAPSSKSTSGGTAALGCLVKDYFPEPVTVSWNSGALTSGVHTFPAVLQSSGLYSLSSVVTVPSSSLGTQTYICNVNHKPSNTKVDKKVEPKSCDKTHTCPPCPAPEKKGGPSVFLFPPKPKDTLMISRTPEVTCVVVDVSHEDPEVKFNWYVDGVEVHNAKTKPREEQYNSTYRVVSVLTVLHQDWLNGKEYKCKVSNKALPAPIEKTISKAKGQPREPQVYVLPPSREEMTKNQVSLLCLVKGFYPSDIAVEWESNGQPENRYMTWPPVLDSDGSFFLYSKLTVDKSRWQQGNVFSCSVMHEALHNHYTQKSLSLSPGK
light: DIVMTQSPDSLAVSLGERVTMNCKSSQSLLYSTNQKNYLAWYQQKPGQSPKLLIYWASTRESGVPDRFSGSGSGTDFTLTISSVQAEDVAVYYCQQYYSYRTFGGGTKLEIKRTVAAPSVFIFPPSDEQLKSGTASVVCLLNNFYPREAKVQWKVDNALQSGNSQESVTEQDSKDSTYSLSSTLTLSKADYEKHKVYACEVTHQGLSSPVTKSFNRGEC
binding result [2]: no binding
IFN-γ release, % of rIL-23, activated CD8+ T cells [3]: 0%

B7: PD-L2(mut1)-Fc (Fc fusion)
chain 1: LFTVTVPKELYIIEHGSNVTLECNFDTGSHVNLGAIVASLQKVENDTSPHRERATLLEEQLPLGKASFHIPQVQVRDEGQYQCIIIYGVAWDYKYLTLKVKASYRKINTHILKVPETDEVELTCQATGYPLAEVSWPNVSVPANTSHSRTPEGLYQVTSVLRLKPPPGRNFSCVFWNTHVRELTLASIDLQSQMEPRTHPTDKTHTCPPCPAPEDEGGPSVFLFPPKPKDTLMISRTPEVTCVVVDVSHEDPEVKFNWYVDGVEVHNAKTKPREEQYNSTYRVVSVLTVLHQDWLNGKEYKCKVSNKALPAPIEKTISKAKGQPREPQVYVYPPSREEMTKNQVSLTCLVKGFYPSDIAVEWESNGQPENNYKTTPPVLDEDGSFALVSKLTVDKSRWQQGNVFSCSVMHEALHNHYTQKSLSLSPGK
chain 2: LFTVTVPKELYIIEHGSNVTLECNFDTGSHVNLGAIVASLQKVENDTSPHRERATLLEEQLPLGKASFHIPQVQVRDEGQYQCIIIYGVAWDYKYLTLKVKASYRKINTHILKVPETDEVELTCQATGYPLAEVSWPNVSVPANTSHSRTPEGLYQVTSVLRLKPPPGRNFSCVFWNTHVRELTLASIDLQSQMEPRTHPTDKTHTCPPCPAPEKKGGPSVFLFPPKPKDTLMISRTPEVTCVVVDVSHEDPEVKFNWYVDGVEVHNAKTKPREEQYNSTYRVVSVLTVLHQDWLNGKEYKCKVSNKALPAPIEKTISKAKGQPREPQVYVLPPSREEMTKNQVSLLCLVKGFYPSDIAVEWESNGQPENRYMTWPPVLDSDGSFFLYSKLTVDKSRWQQGNVFSCSVMHEALHNHYTQKSLSLSPGK
notes: also called T56V
Kd [4]: 0.52 µM
Kd [5]: 0.43 µM

B8: PD-L2(mut2)-Fc (Fc fusion)
chain 1: LFTVTVPKELYIIEHGSNVTLECNFDTGSHVNLGAITAVLQKVENDTSPHRERATLLEEQLPLGKASFHIPQVQVRDEGQYQCIIIYGVAWDYKYLTLKVKASYRKINTHILKVPETDEVELTCQATGYPLAEVSWPNVSVPANTSHSRTPEGLYQVTSVLRLKPPPGRNFSCVFWNTHVRELTLASIDLQSQMEPRTHPTDKTHTCPPCPAPEDEGGPSVFLFPPKPKDTLMISRTPEVTCVVVDVSHEDPEVKFNWYVDGVEVHNAKTKPREEQYNSTYRVVSVLTVLHQDWLNGKEYKCKVSNKALPAPIEKTISKAKGQPREPQVYVYPPSREEMTKNQVSLTCLVKGFYPSDIAVEWESNGQPENNYKTTPPVLDEDGSFALVSKLTVDKSRWQQGNVFSCSVMHEALHNHYTQKSLSLSPGK
chain 2: LFTVTVPKELYIIEHGSNVTLECNFDTGSHVNLGAITAVLQKVENDTSPHRERATLLEEQLPLGKASFHIPQVQVRDEGQYQCIIIYGVAWDYKYLTLKVKASYRKINTHILKVPETDEVELTCQATGYPLAEVSWPNVSVPANTSHSRTPEGLYQVTSVLRLKPPPGRNFSCVFWNTHVRELTLASIDLQSQMEPRTHPTDKTHTCPPCPAPEKKGGPSVFLFPPKPKDTLMISRTPEVTCVVVDVSHEDPEVKFNWYVDGVEVHNAKTKPREEQYNSTYRVVSVLTVLHQDWLNGKEYKCKVSNKALPAPIEKTISKAKGQPREPQVYVLPPSREEMTKNQVSLLCLVKGFYPSDIAVEWESNGQPENRYMTWPPVLDSDGSFFLYSKLTVDKSRWQQGNVFSCSVMHEALHNHYTQKSLSLSPGK
notes: also called PD-L2(S58V)
Kd [4]: 0.35 µM
Kd [5]: 0.23 µM
